In patent US20220289866A1 (University of California, published 2022):
Where a chain is given by its changes, count along the chain named. Non-standard residues stand in square brackets, D forms with d. No end group written: not given here. *: point of attachment. ARS‑1620 (S-atropisomer) = O=C(CC*)N1CCN(c2ncnc3c(F)c(-c4c(O)cccc4F)c(Cl)cc23)CC1; Nle = CCCC[C@H](N)C(=O)O

B1: P2G5 Fab (Fab, V domains shown)
VH: QVQLLESGGGVVQPGRSLRLSCAASGFTFSSYAMHWVRQAPGKGLEWLASISYDGSNKFHADSVKGRFTISRDNSKSTLYLQMNSLRAEDTAVYYCVRERVPWDYDGMDVWGQGTTVTVSS
VL: QSVVTQPPSVSAAPGQKVTVSCSGSNSNIGDNYVSWYQLLPGTAPKLLIYDNNKRPSGILDRFSGSKSGTSATLDITGLQTGDEADYYCGTWDSSLLTVVFGGGTKLTVLG
notes: Fab from a human naive Fab-phage library; also called P1C1; P1C1(P2G5)
B2: P1H6 Fab (Fab, V domains shown)
VH: B1 VH with L5V
VL: B1 VL with V4L, N26S, D31N, L97I, T98N, L107V, G111S
notes: Fab from a human naive Fab-phage library
B3: P1A4 Fab (Fab, V domains shown)
VH: QVQLQESGGGLVQPGRSLRLSCAASGFTFSSYAMHWVRQAPGKGLEWVAVISYDGSNKYYADSVKGRFTISRDNSKNTLYLQMNSLRAEDTAVYYCARDYDWQYFDYWGQGTLVTVSS
VL: QSVVTQPPSVSAAPGQEVTISCSGSSSNIGNNYVSWYQHLPGTAPKLLIYDSDKRPSGIPDRFSGSKSGTSATLGVTGLQTGDEADYYCGTWDSSLSAVMFGGGTKLTVLG
B4: P2F10 Fab (Fab, V domains shown)
VH: EVQLVESGGGVVQPGRSLRLSCAASGFTFSNYAMHWVRQAPGKGLEWVALISYDGSITYYADSVKGRFTISRDNSKDTLYLQMNSLRPEDTTLYYCARERVPYDYYGMAVWGQGTTVTVSS
VL: QSVLTQPPSVSAAPGQKVTISCSGSASNIGSNHVSWYQHVPGTAPQLLIYDDKQRPSGIPDRFSGSKSGTSAALAITGLQTGDEADYYCATWDNSLASAFFGGGTKLTVLS
notes: as for B2
B5: P2F11 Fab (Fab, V domains shown)
VH: B1 VH with Q1D, L5V, S31N, L48V, S50L
VL: QSVLTQPPSASGTPGQRVTISCSGGNSNIKSNTVSWYRQLPGATPKLLIYKTSQRPSGVPDRFSGSKSDTSATLDIAGLQTGDEADYYCGTWDNSLSSVVFGGGTRVTVLG
notes: as for B2

How the values were obtained:
[1] = biological target: T1, PolyG-1620 peptide (S-atropisomer) (not fully specified (N-terminus); printed as GGC(1620)GGGGGG-Nle); assay: BLI, biotinylated peptide
T1 construct: Control peptide, not of natural origin
T1 peptide: GGC(ARS‑1620 (S-atropisomer))GGGGGG[Nle]

[2] = biological target: T1, PolyG-1620 peptide (S-atropisomer); assay: BLI; 'Affinity (nM)'
AHR2-1620 peptide = biological target: T2, AHR2-1620 peptide; assay: BLI; 'Affinity (nM)'
T2 construct: Origin printed as 'off target'
T2 peptide: VVVEPQQQLC(ARS‑1620 (S-atropisomer))QK

Binder	Kd [1] [nM]	Kd [2] [nM]	Kd (AHR2-1620 peptide) [nM]
B1	85.4	–	–
B2	24.6	–	–
B3	39	40	51
B4	14.1	–	–
B5	21.7	–	–
